T1: KRAS G12D peptide on HLA-A*11:01 (human)
T1 peptide: VVVGADGVGK

T2: KRAS G12V peptide on HLA-A*02:01 (human)
T2 peptide: KLVVVGAVGV


Molecular target: T1, KRAS G12D peptide on HLA-A*11:01
Experiment: multimer staining

Binder	binding result
TCR6 (TCR, V domains shown) Valpha: AQTVTQSQPEMSVQEAETVTLSCTYDTSESDYYLFWYKQPPSRQMILVIRQEAYKQQNATENRFSVNFQKAAKSFSLKISDSQLGDAAMYFCAYTNSGNTPLVFGKGTRLSVIA Vbeta: DAGVIQSPRHEVTEMGQEVTLRCKPISGHDYLFWYRQTMMRGLELLIYFNNNVPIDDSGMPEDRFSAKMPNASFSTLKIQPSEPRDSAVYFCASKPGPRSWREGAFFGQGTRLTVV	recognises
TCR5 (TCR, V domains shown) Valpha: ILNVEQSPQSLHVQEGDSTNFTCSFPSSNFYALHWYRWETAKSPEALFVMTLNGDEKKKGRISATLNTKEGYSYLYIKGSQPEDSATYLCASADGANNLFFGTGTRLTVIP Vbeta: SAVISQKPSRDICQRGTSLTIQCQVDSQVTMMFWYRQQPRQSLTLIATANQGSEATYESGFVIDKFPISRPNLTFSTLTVSNMSPEDSSIYLCSVGPSGTGPGYTFGSGTRLTVV	recognises
TCR2 (TCR, V domains shown) Valpha: AQKVTQAQTEISVVEKEDVTLDCVYETRDTTYYLFWYKQPPSGELVFLIRRNSFDEQNEISGRYSWNFQKSTSSFNFTITASQVVDSAVYFCALSEGSNYKLTFGKGTLLTVNP Vbeta: EAGVAQSPRYKIIEKRQSVAFWCNPISGHATLYWYQQILGQGPKLLIQFQNNGVVDDSQLPKDRFSAERLKGVDSTLKIQPAKLEDSAVYLCASSSTGGTGETQYFGPGTRLLVL	recognises

The next lines start with the values.

binding result	Binder
recognises	TCR1 (TCR, V domains shown) Valpha: AQKVTQAQTEISVVEKEDVTLDCVYETRDTTYYLFWYKQPPSGELVFLIRRNSFDEQNEISGRYSWNFQKSTSSFNFTITASQVVDSAVYFCALSEVTGAGSYQLTFGKGTKLSVIP Vbeta: DGGITQSPKYLFRKEGQNVTLSCEQNLNHDAMYWYRQDPGQGLRLIYYSQIVNDFQKGDIAEGYSVSREKKESFPLTVTSAQKNPTAFYLCASSIGAGQHNSPLHFGNGTRLTVT
recognises	TCR4 (TCR, V domains shown) Valpha: GEDVEQSLFLSVREGDSSVINCTYTDSSSTYLYWYKQEPGAGLQLLTYIFSNMDMKQDQRLTVLLNKKDKHLSLRIADTQTGDSAIYFCAERRGNMLTFGGGTRLMVKP Vbeta: NAGVTQTPKFRILKIGQSMTLQCTQDMNHNYMYWYRQDPGMGLKLIYYSVGAGITDKGEVPNGYNVSRSTTEDFPLRLELAAPSQTSVYFCASSRTSGLTDTQYFGPGTRLTVL
recognises	TCR3 (TCR, V domains shown) Valpha: AQKITQTQPGMFVQEKEAVTLDCTYDTSDPSYGLFWYKQPSSGEMIFLIYQGSYDQQNATEGRYSLNFQKARKSANLVISASQLGDSAMYFCVGNEKLTFGTGTRLTIIP Vbeta: KAGVTQTPRYLIKTRGQQVTLSCSPISGHRSVSWYQQTPGQGLQFLFEYFSETQRNKGNFPGRFSGRQFSNSRSEMNVSTLELGDSALYLCASSLATGGYNSPLHFGNGTRLTVT

Molecular target: T2, KRAS G12V peptide on HLA-A*02:01
Experiment: multimer staining

Binder	binding result
TCR8 (TCR, V domains shown) Valpha: GEDVEQSLFLSVREGDSSVINCTYTDSSSTYLYWYKQEPGAGLQLLTYIFSNMDMKQDQRLTVLLNKKDKHLSLRIADTQTGDSAIYFCAESIRDTDKLIFGTGTRLQVFP Vbeta: GAVVSQHPSRVICKSGTSVKIECRSLDFQATTMFWYRQFPKKSLMLMATSNEGSKATYEQGVEKDKFLINHASLTLSTLTVTSAHPEDSSFYICSARDTSGTTRNEQFFGPGTRLTVL	recognises
TCR15 (TCR, V domains shown) Valpha: GEDVEQSLFLSVREGDSSVINCTYTDSSSTYLYWYKQEPGAGLQLLTYIFSNMDMKQDQRLTVLLNKKDKHLSLRIADTQTGDSAIYFCADFLRDTDKLIFGTGTRLQVFP Vbeta: GAVVSQHPSWVICKSGTSVKIECRSLDFQATTMFWYRQFPKQSLMLMATSNEGSKATYEQGVEKDKFLINHASLTLSTLTVTSAHPEDSSFYICSARDRTSTDTQYFGPGTRLTVL	recognises
TCR10 (TCR, V domains shown) Valpha: GEDVEQSLFLSVREGDSSVINCTYTDSSSTYLYWYKQEPGAGLQLLTYIFSNMDMKQDQRLTVLLNKKDKHLSLRIADTQTGDSAIYFCAEMKDTDKLIFGTGTRLQVFP Vbeta: DGGITQSPKYLFRKEGQNVTLSCEQNLNHDAMYWYRQDPGQGLRLIYYSQIVNDFQKGDIAEGYSVSREKKESFPLTVTSAQKNPTAFYLCASTQVGTGELFFGEGSRLTVL	recognises
TCR12 (TCR, V domains shown) Valpha: GEDVEQSLFLSVREGDSSVINCTYTDSSSTYLYWYKQEPGAGLQLLTYIFSNMDMKQDQRLTVLLNKKDKHLSLRIADTQTGDSAIYFCAEIRDTGKLIFGQGTTLQVKP Vbeta: DVKVTQSSRYLVKRTGEKVFLECVQDMDHENMFWYRQDPGLGLRLIYFSYDVKMKEKGDIPEGYSVSREKKERFSLILESASTNQTSMYLCASSRQGTDTQYFGPGTRLTVL	recognises

Now from value to binder:

binding result	Binder
recognises	TCR9 (TCR, V domains shown) Valpha: GEDVEQSLFLSVREGDSSVINCTYTDSSSTYLYWYKQEPGAGLQLLTYIFSNMDMKQDQRLTVLLNKKDKHLSLRIADTQTGDSAIYFCAEIPGDSSYKLIFGSGTRLLVRP Vbeta: not shown
recognises	TCR14 (TCR, V domains shown) Valpha: AQKITQTQPGMFVQEKEAVTLDCTYDTSDPSYGLFWYKQPSSGEMIFLIYQGSYDQQNATEGRYSLNFQKARKSANLVISASQLGDSAMYFCAMRGMDSSYKLIFGSGTRLLVRP Vbeta: DVKVTQSSRYLVKRTGEKVFLECVQDMDHENMFWYRQDPGLGLRLIYFSYDVKMKEKGDIPEGYSVSREKKERFSLILESASTNQTSMYLCATRTGQQAGSKDTDTQYFGPGTRLTVL
recognises	TCR16 (TCR, V domains shown) Valpha: DQQVKQNSPSLSVQEGRISILNCDYTNSMFDYFLWYKKYPAEGPTFLISISSIKDKNEDGRFTVFLNKSAKHLSLHIVPSQPGDSAVYFCAVNRDDKIIFGKGTRLHILP Vbeta: DTGVSQDPRHKITKRGQNVTFRCDPISEHNRLYWYRQTLGQGPEFLTYFQNEAQLEKSRLLSDRFSAERPKGSFSTLEIQRTEQGDSAMYLCASSSELAGGINEQFFGPGTRLTVL
recognises	TCR11 (TCR, V domains shown) Valpha: GEDVEQSLFLSVREGDSSVINCTYTDSSSTYLYWYKQEPGAGLQLLTYIFSNMDMKQDQRLTVLLNKKDKHLSLRIADTQTGDSAIYFCAEMKDTDKLIFGTGTRLQVFP Vbeta: not shown
recognises	TCR13 (TCR, V domains shown) Valpha: GEDVEQSLFLSVREGDSSVINCTYTDSSSTYLYWYKQEPGAGLQLLTYIFSNMDMKQDQRLTVLLNKKDKHLSLRIADTQTGDSAIYFCAERRDTDKLIFGTGTRLQVFP Vbeta: GAVVSQHPSWVICKSGTSVKIECRSLDFQATTMFWYRQFPKQSLMLMATSNEGSKATYEQGVEKDKFLINHASLTLSTLTVTSAHPEDSSFYICSAWGANTGELFFGEGSRLTVL
